Reference: ChEMBL document CHEMBL1250451, “Mechanistic insights into a Ca2+-dependent family of alpha-mannosidases in a human gut symbiont” (Nat Chem Biol, 2010)

What was measured:
Format in all cases: protein assay
[1] = substrate: OC[C@H]1O[C@H](O[C@H]2[C@@H](O)[C@H](O)[C@@H](CO)O[C@@H]2O)[C@@H](O)[C@@H](O)[C@@H]1O; assay: (§1) Ratio of Kcat to Km for Bacteroides thetaiotaomicron GH92 alpha-mannosidase 3990 D642A mutant assessed as as mannose release after 16 hrs by HPLC relative to wild type enzyme
[2] = substrate: O=[N+]([O-])c1ccc(O[C@H]2O[C@H](CO)[C@@H](O)[C@H](O)[C@@H]2O)c([N+](=O)[O-])c1; assay: as §1
[3] = substrate: O=[N+]([O-])c1ccc(O[C@H]2O[C@H](CO)[C@@H](O)[C@H](O)[C@@H]2O)cc1; assay: as §1
[4] = substrate: OC[C@H]1O[C@H](O[C@H]2[C@@H](O)[C@H](O)[C@@H](CO)O[C@@H]2O)[C@@H](O)[C@@H](O)[C@@H]1O; assay: (§2) Activity of Bacteroides thetaiotaomicron GH92 alpha-mannosidase 3990 D642A mutant assessed as as mannose release after 16 hrs by HPLC relative to wild type enzyme
[5] = substrate: O=[N+]([O-])c1ccc(O[C@H]2O[C@H](CO)[C@@H](O)[C@H](O)[C@@H]2O)cc1; assay: as §2
[6] = substrate: OC[C@H]1O[C@H](O[C@H]2[C@@H](O)[C@H](O)[C@@H](CO)O[C@@H]2O)[C@@H](O)[C@@H](O)[C@@H]1O; assay: (§3) Activity of Bacteroides thetaiotaomicron GH92 alpha-mannosidase 3990 S86A mutant assessed as mannose release after 16 hrs by HPLC relative to wild type enzyme
[7] = substrate: O=[N+]([O-])c1ccc(O[C@H]2O[C@H](CO)[C@@H](O)[C@H](O)[C@@H]2O)cc1; assay: as §3
[8] = substrate: OC[C@H]1O[C@H](O[C@H]2[C@@H](O)[C@H](O)[C@@H](CO)O[C@@H]2O)[C@@H](O)[C@@H](O)[C@@H]1O; assay: (§4) Ratio of Kcat to Km for Bacteroides thetaiotaomicron GH92 alpha-mannosidase 3990 S86A mutant assessed as mannose release after 16 hrs by HPLC relative to wild type enzyme
[9] = substrate: O=[N+]([O-])c1ccc(O[C@H]2O[C@H](CO)[C@@H](O)[C@H](O)[C@@H]2O)c([N+](=O)[O-])c1; assay: as §4
[10] = substrate: O=[N+]([O-])c1ccc(O[C@H]2O[C@H](CO)[C@@H](O)[C@H](O)[C@@H]2O)cc1; assay: as §4
[11] = substrate: OC[C@H]1O[C@H](O[C@H]2[C@@H](O)[C@H](O)[C@@H](CO)O[C@@H]2O)[C@@H](O)[C@@H](O)[C@@H]1O; assay: (§5) Ratio of Kcat to Km for Bacteroides thetaiotaomicron GH92 alpha-mannosidase 3990 E585A mutant assessed as as mannose release after 16 hrs by HPLC relative to wild type enzyme
[12] = substrate: O=[N+]([O-])c1ccc(O[C@H]2O[C@H](CO)[C@@H](O)[C@H](O)[C@@H]2O)c([N+](=O)[O-])c1; assay: as §5
[13] = substrate: O=[N+]([O-])c1ccc(O[C@H]2O[C@H](CO)[C@@H](O)[C@H](O)[C@@H]2O)cc1; assay: as §5
[14] = substrate: OC[C@H]1O[C@H](O[C@H]2[C@@H](O)[C@H](O)[C@@H](CO)O[C@@H]2O)[C@@H](O)[C@@H](O)[C@@H]1O; assay: (§6) Activity of Bacteroides thetaiotaomicron GH92 alpha-mannosidase 3990 E585A mutant assessed as as mannose release after 16 hrs by HPLC relative to wild type enzyme
[15] = substrate: O=[N+]([O-])c1ccc(O[C@H]2O[C@H](CO)[C@@H](O)[C@H](O)[C@@H]2O)cc1; assay: as §6

B1: Alpha-1,2-mannosidase (BT_3990) (Bacteroides thetaiotaomicron), Q8A0N1 D642A (protein)
chain: MKRLLLIACILNCTLLSQAKDWTQYVNPLMGSQSTFELSTGNTYPAIARPWGMNFWTPQTGKMGDGWQYTYTANKIRGFKQTHQPSPWINDYGQFSIMPIVGQPVFDEEKRASWFAHKGEVATPYYYKVYLAEHDIVTEMTPTERAVLFRFTFPENDHSYVVVDAFDKGSYIKIIPEENKIIGYTTRNSGGVPENFKNYFIIEFDKPFTYKATVENGNLQENVAEQTTDHAGAIIGFKTRKGEQVNARIASSFISFEQAAANMNELGKDNIEQLAQKGKDAWNQVLGKIEVEGGNLDQYRTFYSCLYRSLLFPRKFYELDANGQPIHYSPYNGQVLPGYMFTDTGFWDTFRCLFPLLNLMYPSVNKEMQEGLINTYLESGFFPEWASPGHRGCMVGNNSASILVDAYMKGVKVDDIKTLYEGLIHGTENVHPEVSSTGRLGYEYYNKLGYVPYDVKINENAARTLEYAYDDWCIYRLAKELKRPKKEISLFAKRAMNYKNLFDKESKLMRGRNEDGTFQSPFSPLKWGDAFTEGNSWHYTWSVFHDPQGLIDLMGGKEMFVTMMDSVFAVPPIFDDSYYGQVIHEIREMTVMNMGNYAHGNQPIQHMIYLYDYAGQPWKAQYWLRQVMDRMYTPGPDGYCGAEDNGQTSAWYVFSALGFYPVCPGTDEYVMGTPLFKKATLHFENGNSLVIDAPNNSTENFYIDSMSFNGADHTKNYLRHEDLFKGGTIKVDMSNRPNLNRGTKEEDMPYSFSKE
- kcat/Km [1]: 0.783 M⁻¹ s⁻¹
- kcat/Km [2]: 0.383 M⁻¹ s⁻¹
- kcat/Km [3]: Not Active
- Km [4]: 690 µM
- kcat [4]: 0.000533 s⁻¹
- Km [5]: Not Active
- kcat [5]: Not Active

B2: Alpha-1,2-mannosidase (BT_3990) (Bacteroides thetaiotaomicron), Q8A0N1 S86A (protein)
chain: MKRLLLIACILNCTLLSQAKDWTQYVNPLMGSQSTFELSTGNTYPAIARPWGMNFWTPQTGKMGDGWQYTYTANKIRGFKQTHQPAPWINDYGQFSIMPIVGQPVFDEEKRASWFAHKGEVATPYYYKVYLAEHDIVTEMTPTERAVLFRFTFPENDHSYVVVDAFDKGSYIKIIPEENKIIGYTTRNSGGVPENFKNYFIIEFDKPFTYKATVENGNLQENVAEQTTDHAGAIIGFKTRKGEQVNARIASSFISFEQAAANMNELGKDNIEQLAQKGKDAWNQVLGKIEVEGGNLDQYRTFYSCLYRSLLFPRKFYELDANGQPIHYSPYNGQVLPGYMFTDTGFWDTFRCLFPLLNLMYPSVNKEMQEGLINTYLESGFFPEWASPGHRGCMVGNNSASILVDAYMKGVKVDDIKTLYEGLIHGTENVHPEVSSTGRLGYEYYNKLGYVPYDVKINENAARTLEYAYDDWCIYRLAKELKRPKKEISLFAKRAMNYKNLFDKESKLMRGRNEDGTFQSPFSPLKWGDAFTEGNSWHYTWSVFHDPQGLIDLMGGKEMFVTMMDSVFAVPPIFDDSYYGQVIHEIREMTVMNMGNYAHGNQPIQHMIYLYDYAGQPWKAQYWLRQVMDRMYTPGPDGYCGDEDNGQTSAWYVFSALGFYPVCPGTDEYVMGTPLFKKATLHFENGNSLVIDAPNNSTENFYIDSMSFNGADHTKNYLRHEDLFKGGTIKVDMSNRPNLNRGTKEEDMPYSFSKE
- Km [6]: 3200 µM
- kcat [6]: 2 s⁻¹
- Km [7]: 8500 µM
- kcat [7]: 0.00667 s⁻¹
- kcat/Km [8]: 6330 M⁻¹ s⁻¹
- kcat/Km [9]: 51.7 M⁻¹ s⁻¹
- kcat/Km [10]: 0.783 M⁻¹ s⁻¹

B3: Alpha-1,2-mannosidase (BT_3990) (Bacteroides thetaiotaomicron), Q8A0N1 E585A (protein)
chain: MKRLLLIACILNCTLLSQAKDWTQYVNPLMGSQSTFELSTGNTYPAIARPWGMNFWTPQTGKMGDGWQYTYTANKIRGFKQTHQPSPWINDYGQFSIMPIVGQPVFDEEKRASWFAHKGEVATPYYYKVYLAEHDIVTEMTPTERAVLFRFTFPENDHSYVVVDAFDKGSYIKIIPEENKIIGYTTRNSGGVPENFKNYFIIEFDKPFTYKATVENGNLQENVAEQTTDHAGAIIGFKTRKGEQVNARIASSFISFEQAAANMNELGKDNIEQLAQKGKDAWNQVLGKIEVEGGNLDQYRTFYSCLYRSLLFPRKFYELDANGQPIHYSPYNGQVLPGYMFTDTGFWDTFRCLFPLLNLMYPSVNKEMQEGLINTYLESGFFPEWASPGHRGCMVGNNSASILVDAYMKGVKVDDIKTLYEGLIHGTENVHPEVSSTGRLGYEYYNKLGYVPYDVKINENAARTLEYAYDDWCIYRLAKELKRPKKEISLFAKRAMNYKNLFDKESKLMRGRNEDGTFQSPFSPLKWGDAFTEGNSWHYTWSVFHDPQGLIDLMGGKEMFVTMMDSVFAVPPIFDDSYYGQVIHAIREMTVMNMGNYAHGNQPIQHMIYLYDYAGQPWKAQYWLRQVMDRMYTPGPDGYCGDEDNGQTSAWYVFSALGFYPVCPGTDEYVMGTPLFKKATLHFENGNSLVIDAPNNSTENFYIDSMSFNGADHTKNYLRHEDLFKGGTIKVDMSNRPNLNRGTKEEDMPYSFSKE
- kcat/Km [11]: 3.17 M⁻¹ s⁻¹
- kcat/Km [12]: 9330 M⁻¹ s⁻¹
- kcat/Km [13]: 5.5 M⁻¹ s⁻¹
- Km [14]: 2300 µM
- kcat [14]: 0.00733 s⁻¹
- Km [15]: Not Active
- kcat [15]: Not Active
